Tested on: Escherichia coli TOP10
Test: shrunken log2 fold change of peptide-encoding DNA abundance (4.5 h post-induction vs induction); higher = less antimicrobial activity (less host growth inhibition)
Conditions: time post-induction: 4.5 h; library: site-saturation at positions 5, 18, 19, 20
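Further: peptides expressed intracellularly from a pBAD plasmid library in pooled LB shake-flask culture, induced with 0.3% L-arabinose, DNA abundance read by NGS, three biological replicates, DESeq2 with apeglm shrinkage.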

| Sequence | shrunken log2 fold change |
| --- | --- |
| RRIRFRPPRLPRPRPRPHTRPRP | -0.223 |
| RRIRRRPPRLPRPRPRPYFFPRP | -0.0972 |
| RRIRLRPPRLPRPRPRPYWAPRP | 0.216 |
| RRIRTRPPRLPRPRPRPIWVPRP | -0.0869 |
| RRIRDRPPRLPRPRPRPTLNPRP | 0.171 |
| RRIRQRPPRLPRPRPRPCNYPRP | 0.00177 |
| RRIRERPPRLPRPRPRPIPSPRP | -0.109 |
| RRIRQRPPRLPRPRPRPWGIPRP | 0.0274 |
| RRIRWRPPRLPRPRPRPKVDPRP | 0.0401 |
| RRIRRRPPRLPRPRPRPWYWPRP | -0.039 |
| RRIRYRPPRLPRPRPRPDPFPRP | -0.206 |
| RRIRMRPPRLPRPRPRPCYRPRP | 0.035 |
| RRIRNRPPRLPRPRPRPITTPRP | -0.225 |
| RRIRTRPPRLPRPRPRPAHNPRP | -0.215 |
| RRIRDRPPRLPRPRPRPTFKPRP | -0.0434 |
| RRIRTRPPRLPRPRPRPIATPRP | 0.227 |
| RRIRIRPPRLPRPRPRPDHLPRP | -0.846 |
| RRIRKRPPRLPRPRPRPTIYPRP | -0.0381 |
| RRIRNRPPRLPRPRPRPCGLPRP | 0.0441 |
| RRIRERPPRLPRPRPRPHCEPRP | -0.056 |
| RRIRPRPPRLPRPRPRPMTAPRP | 0.162 |
| RRIRLRPPRLPRPRPRPKEWPRP | 0.157 |
| RRIRWRPPRLPRPRPRPSWQPRP | -0.0268 |
| RRIRMRPPRLPRPRPRPLKSPRP | 0.11 |
| RRIRFRPPRLPRPRPRPRMQPRP | 0.206 |

| Sequence | shrunken log2 fold change |
| --- | --- |
| RRIRKRPPRLPRPRPRPIDDPRP | 0.0889 |
| RRIRKRPPRLPRPRPRPPNHPRP | 0.33 |
| RRIRKRPPRLPRPRPRPKLVPRP | 0.0448 |
| RRIRTRPPRLPRPRPRPIVDPRP | 0.0147 |
| RRIRKRPPRLPRPRPRPTMQPRP | 0.626 |
| RRIRGRPPRLPRPRPRPTKEPRP | 0.439 |
| RRIRRRPPRLPRPRPRPDADPRP | 1.78 |
| RRIRNRPPRLPRPRPRPGRVPRP | 0.296 |
| RRIRDRPPRLPRPRPRPHIYPRP | -0.0848 |
| RRIRERPPRLPRPRPRPSLFPRP | -0.44 |
| RRIRPRPPRLPRPRPRPHTCPRP | -0.123 |
| RRIRNRPPRLPRPRPRPRQWPRP | 0.299 |
| RRIRNRPPRLPRPRPRPVGWPRP | 0.855 |
| RRIRERPPRLPRPRPRPCVLPRP | 0.0248 |
| RRIRFRPPRLPRPRPRPHAHPRP | -0.0397 |
| RRIRKRPPRLPRPRPRPEMKPRP | 0.682 |
| RRIRRRPPRLPRPRPRPRFGPRP | 0.438 |
| RRIRERPPRLPRPRPRPTTPPRP | -0.0926 |
| RRIRERPPRLPRPRPRPAWKPRP | -0.0447 |
| RRIRWRPPRLPRPRPRPCTCPRP | 0.0236 |
| RRIRRRPPRLPRPRPRPCHLPRP | -0.0646 |
| RRIRGRPPRLPRPRPRPPGTPRP | 0.982 |
| RRIRARPPRLPRPRPRPRYNPRP | -0.487 |
| RRIRIRPPRLPRPRPRPHVEPRP | -0.227 |
| RRIRNRPPRLPRPRPRPAKHPRP | 0.027 |
